Assay results reported in patent US20160297889A1 (TORAY INDUSTRIES, published 2016).
Changes are numbered by the printed parent chain.

T1: CAPRIN-1 protein expressed on the membrane surface of human cancer cells (human, UniProt Q14444 2-709)
T1 sequence (looked up): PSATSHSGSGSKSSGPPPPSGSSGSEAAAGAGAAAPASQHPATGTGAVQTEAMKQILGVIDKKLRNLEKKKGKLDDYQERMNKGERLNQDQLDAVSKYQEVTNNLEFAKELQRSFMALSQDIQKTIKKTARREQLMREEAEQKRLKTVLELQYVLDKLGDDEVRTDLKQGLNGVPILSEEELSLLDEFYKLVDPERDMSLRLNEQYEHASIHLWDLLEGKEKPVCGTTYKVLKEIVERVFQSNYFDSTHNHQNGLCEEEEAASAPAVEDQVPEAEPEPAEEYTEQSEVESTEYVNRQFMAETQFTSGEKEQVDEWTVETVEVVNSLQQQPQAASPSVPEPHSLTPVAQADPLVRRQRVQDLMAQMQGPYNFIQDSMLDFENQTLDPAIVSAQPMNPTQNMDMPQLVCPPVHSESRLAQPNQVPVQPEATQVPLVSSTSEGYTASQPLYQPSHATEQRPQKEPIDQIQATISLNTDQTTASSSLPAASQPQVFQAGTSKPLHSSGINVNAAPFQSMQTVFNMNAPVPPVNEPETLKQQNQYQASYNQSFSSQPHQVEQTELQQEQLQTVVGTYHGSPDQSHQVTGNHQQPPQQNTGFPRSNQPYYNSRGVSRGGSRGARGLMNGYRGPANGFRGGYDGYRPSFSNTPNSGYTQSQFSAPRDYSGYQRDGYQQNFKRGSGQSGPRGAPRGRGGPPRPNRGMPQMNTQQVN

B1: humanized antibody #7 (antibody, V domains shown)
VH: EVQLVESGGGLVQPGGSLRLSCAASGFSLSSHSLGWVRQAPGKGLEWIGDIRSGGSAYYANWAKGRFTISRDNSKNTLYLQMNSLRAEDTAVYYCTRTNGPSDLTNRLDLWGQGTLVTVSS
VL: QVLTQSPSSLSASVGDRVTINCQASQSLYNNENLAWFQQKPGKVPKRLIYGASTLASGVSSRFSGSGSGTEFTLTISSLQCEDFAIYYCLGEFSCGSADCFAFGGGTKVEIK
B2: humanized antibody #2 (antibody, V domains shown)
VH: B1 VH
VL: EIVLTQSPSSLSASVGDRVTINCQASQSLYNNENLAWFQQKPGKVPKRLIYGASTLASGVSSRFSGSGSGTEFTLTISNLQPEDFATYYCLGEFSCGSADCFAFGGGTKVEIK
B3: humanized antibody #0 (antibody, V domains shown)
VH: B1 VH with Y94F
VL: B2 VL with E1A, V3Q, L4M, V45A, E72D, N79S, T87I
B4: humanized antibody #10 (antibody, V domains shown)
VH: B1 VH with V2Q, Q3S
VL: B1 VL
B5: humanized antibody #1 (antibody, V domains shown)
VH: B1 VH
VL: B2 VL with E1A, V3Q, L4M, V45A, E72D, N79S, T87I
B6: humanized antibody #6 (antibody, V domains shown)
VH: B1 VH with Y94F
VL: B1 VL

Molecular target: T1, CAPRIN-1 protein expressed on the …
Test: cell-based or functional assay

Binder | ADCC cytotoxic activity (51Cr release) on 22Rv1 [%] | ADCC cytotoxic activity (51Cr release) on A-673 [%] | ADCC cytotoxic activity (51Cr release) on BT-474 [%] | ADCC cytotoxic activity (51Cr release) on Caki-2 [%] | ADCC cytotoxic activity (51Cr release) on FaDu [%] | ADCC cytotoxic activity (51Cr release) on G-361 [%] | ADCC cytotoxic activity (51Cr release) on HEC-1-A [%] | ADCC cytotoxic activity (51Cr release) on HT-29 [%] | ADCC cytotoxic activity (51Cr release) on HT-1080 [%] | ADCC cytotoxic activity (51Cr release) on HT-1376 [%] | ADCC cytotoxic activity (51Cr release) on Hep3B [%] | ADCC cytotoxic activity (51Cr release) on IM-9 [%] | ADCC cytotoxic activity (51Cr release) on MDA-MB-361 [%] | ADCC cytotoxic activity (51Cr release) on NCI-H2452 [%] | ADCC cytotoxic activity (51Cr release) on NCI-N87 [%] | ADCC cytotoxic activity (51Cr release) on NT/D1 [%] | ADCC cytotoxic activity (51Cr release) on OCI-AML5 [%] | ADCC cytotoxic activity (51Cr release) on OE33 [%] | ADCC cytotoxic activity (51Cr release) on Panc10.5 [%] | ADCC cytotoxic activity (51Cr release) on QG56 [%] | further results
B1 | ≥ 49 | ≥ 50 | ≥ 54 | ≥ 37 | ≥ 50 | ≥ 25 | ≥ 52 | ≥ 43 | ≥ 30 | ≥ 45 | ≥ 28 | ≥ 35 | ≥ 52 | ≥ 35 | ≥ 45 | ≥ 37 | ≥ 20 | ≥ 35 | ≥ 35 | ≥ 46 | ADCC cytotoxic activity (51Cr release) on RD-ES: ≥ 48%; ADCC cytotoxic activity (51Cr release) on RPM11666: ≥ 40%; ADCC cytotoxic activity (51Cr release) on Ramos: ≥ 20%; ADCC cytotoxic activity (51Cr release) on SKOV3: ≥ 35%; ADCC cytotoxic activity (51Cr release) on T24: ≥ 36%; ADCC cytotoxic activity (51Cr release) on TGBC14TKB: ≥ 35%; ADCC cytotoxic activity (51Cr release) on TT: ≥ 42%; ADCC cytotoxic activity (51Cr release) on U-87MG: ≥ 36%
B2 | ≥ 45 | ≥ 46 | ≥ 50 | ≥ 33 | ≥ 40 | ≥ 21 | ≥ 45 | ≥ 40 | ≥ 25 | ≥ 40 | ≥ 25 | ≥ 30 | ≥ 45 | ≥ 39 | ≥ 38 | ≥ 30 | ≥ 18 | ≥ 33 | ≥ 30 | ≥ 42 | ADCC cytotoxic activity (51Cr release) on RD-ES: ≥ 40%; ADCC cytotoxic activity (51Cr release) on RPM11666: ≥ 36%; ADCC cytotoxic activity (51Cr release) on Ramos: ≥ 18%; ADCC cytotoxic activity (51Cr release) on SKOV3: ≥ 31%; ADCC cytotoxic activity (51Cr release) on T24: ≥ 33%; ADCC cytotoxic activity (51Cr release) on TGBC14TKB: ≥ 30%; ADCC cytotoxic activity (51Cr release) on TT: ≥ 35%; ADCC cytotoxic activity (51Cr release) on U-87MG: ≥ 29%
B3 | ≥ 38 | ≥ 40 | ≥ 46 | ≥ 26 | ≥ 35 | ≥ 15 | ≥ 40 | ≥ 35 | ≥ 20 | ≥ 28 | ≥ 21 | ≥ 27 | ≥ 40 | ≥ 31 | ≥ 34 | ≥ 25 | ≥ 15 | ≥ 30 | ≥ 24 | ≥ 38 | ADCC cytotoxic activity (51Cr release) on RD-ES: ≥ 31%; ADCC cytotoxic activity (51Cr release) on RPM11666: ≥ 30%; ADCC cytotoxic activity (51Cr release) on Ramos: ≥ 15%; ADCC cytotoxic activity (51Cr release) on SKOV3: ≥ 27%; ADCC cytotoxic activity (51Cr release) on T24: ≥ 30%; ADCC cytotoxic activity (51Cr release) on TGBC14TKB: ≥ 25%; ADCC cytotoxic activity (51Cr release) on TT: ≥ 30%; ADCC cytotoxic activity (51Cr release) on U-87MG: ≥ 24%
B4 | ≥ 49 | ≥ 50 | ≥ 54 | ≥ 37 | ≥ 50 | ≥ 25 | ≥ 52 | ≥ 43 | ≥ 30 | ≥ 45 | ≥ 28 | ≥ 35 | ≥ 52 | ≥ 35 | ≥ 45 | ≥ 37 | ≥ 20 | ≥ 35 | ≥ 35 | ≥ 46 | ADCC cytotoxic activity (51Cr release) on RD-ES: ≥ 48%; ADCC cytotoxic activity (51Cr release) on RPM11666: ≥ 40%; ADCC cytotoxic activity (51Cr release) on Ramos: ≥ 20%; ADCC cytotoxic activity (51Cr release) on SKOV3: ≥ 35%; ADCC cytotoxic activity (51Cr release) on T24: ≥ 36%; ADCC cytotoxic activity (51Cr release) on TGBC14TKB: ≥ 35%; ADCC cytotoxic activity (51Cr release) on TT: ≥ 42%; ADCC cytotoxic activity (51Cr release) on U-87MG: ≥ 36%
B5 | ≥ 38 | ≥ 40 | ≥ 46 | ≥ 26 | ≥ 35 | ≥ 15 | ≥ 40 | ≥ 35 | ≥ 20 | ≥ 28 | ≥ 21 | ≥ 27 | ≥ 40 | ≥ 31 | ≥ 34 | ≥ 25 | ≥ 15 | ≥ 30 | ≥ 24 | ≥ 38 | ADCC cytotoxic activity (51Cr release) on RD-ES: ≥ 31%; ADCC cytotoxic activity (51Cr release) on RPM11666: ≥ 30%; ADCC cytotoxic activity (51Cr release) on Ramos: ≥ 15%; ADCC cytotoxic activity (51Cr release) on SKOV3: ≥ 27%; ADCC cytotoxic activity (51Cr release) on T24: ≥ 30%; ADCC cytotoxic activity (51Cr release) on TGBC14TKB: ≥ 25%; ADCC cytotoxic activity (51Cr release) on TT: ≥ 30%; ADCC cytotoxic activity (51Cr release) on U-87MG: ≥ 24%
B6 | ≥ 49 | ≥ 50 | ≥ 54 | ≥ 37 | ≥ 50 | ≥ 25 | ≥ 52 | ≥ 43 | ≥ 30 | ≥ 45 | ≥ 28 | ≥ 35 | ≥ 52 | ≥ 35 | ≥ 45 | ≥ 37 | ≥ 20 | ≥ 35 | ≥ 35 | ≥ 46 | ADCC cytotoxic activity (51Cr release) on RD-ES: ≥ 48%; ADCC cytotoxic activity (51Cr release) on RPM11666: ≥ 40%; ADCC cytotoxic activity (51Cr release) on Ramos: ≥ 20%; ADCC cytotoxic activity (51Cr release) on SKOV3: ≥ 35%; ADCC cytotoxic activity (51Cr release) on T24: ≥ 36%; ADCC cytotoxic activity (51Cr release) on TGBC14TKB: ≥ 35%; ADCC cytotoxic activity (51Cr release) on TT: ≥ 42%; ADCC cytotoxic activity (51Cr release) on U-87MG: ≥ 36%
